{"source": "paper PMC5260992", "biological_target": "Pin1 (UniProt Q13526)", "experiment": "modified ELISA, plate-coated peptide", "conditions": "reference: non-phosphorylated peptide T184; sites T184", "data": [{"substance": "ATF1 (activating transcription factor 1) (from UniProt P18846) phosphorylated peptide pT184", "values": [{"measurement": "binding against the reference", "result": "stronger"}]}]}
